{"source": "patent US10124019B2", "about": "“Compositions and their use for removing cholesterol” (Cornell University, priority 2009, dated 2018)", "molecules": {"B1": {"name": "rhASM: Recombinant human acid SMase prepared from transfected CHO cells (protein, UniProt P17405 47-631, looked up)", "Sphingomyelin …": "LALSDSRVLWAPAEAHPLSPQGHPARLHRIVPRLRDVFGWGNLTCPICKGLFTAINLGLKKEPNVARVGSVAIKLCNLLKIAPPAVCQSIVHLFEDDMVEVWRRSVLSPSEACGLLLGSTCGHWDIFSSWNISLPTVPKPPPKPPSPPAPGAPVSRILFLTDLHWDHDYLEGTDPDCADPLCCRRGSGLPPASRPGAGYWGEYSKCDLPLRTLESLLSGLGPAGPFDMVYWTGDIPAHDVWHQTRQDQLRALTTVTALVRKFLGPVPVYPAVGNHESTPVNSFPPPFIEGNHSSRWLYEAMAKAWEPWLPAEALRTLRIGGFYALSPYPGLRLISLNMNFCSRENFWLLINSTDPAGQLQWLVGELQAAEDRGDKVHIIGHIPPGHCLKSWSWNYYRIVARYENTLAAQFFGHTHVDEFEVFYDEETLSRPLAVAFLAPSATTYIGLNPGYRVYQIDGNYSGSSHVVLDHETYILNLTQANIPGAIPHWQLLYRARETYGLPNTLPTAWHNLVYRMRGDMQLFQTFWFLYHKGHPPSEPCGTPCRLATLCAQLSARADSPALCRHLMPDGSLPEAQSLWPRPLFC"}, "B2": {"name": "rhASM-Alexa555: recombinant enzyme conjugated with Alexa555 (conjugate, UniProt P17405 47-631, looked up)", "Sphingomyelin …": "B1 Sphingomyelin …", "modifications": "Alexa555 label"}}, "key": {"[1]": {"tested_on": "NPC1-deficient, NPC2-deficient, apparently normal, and U18666A-treated normal cells", "test": "GC/MS measurement of total free cholesterol", "type": "cell-based, human", "settings": "normal cells treated with 1 μM U18666A", "protocol": "FIGS. […]. Charts showing GC/MS measurement of cyclodextrin effects on total free cholesterol levels in NPC1-deficient, NPC2-deficient, apparently normal, and U18666A-treated normal cells. […] Cells were treated with 0.9 mM MβCD or HPβCD for 1 day in growth medium. At the end of the experiment, cellular lipids were extracted and analyzed by GC/MS. Data represent averages±SEM of two independent experiments normalized to control average value for each experiment."}, "[2]": {"tested_on": "U18666A-treated GM05659 cells", "test": "LSO filipin assay in U18666A-treated apparently normal fibroblasts", "settings": "GM05659 treated with various concentrations of U18666A (FIG. 14A)", "experimental": "Cells were plated in 384-well assay plates at a density to produce ≈80-90% confluency by experiment completion and treated with U18666A at indicated concentrations for 24 hour before addition of various concentrations of either MβCD or HPβCD for another 24 hours, during which indicated U18666A levels were maintained. At the end of the experiment, cells were fixed with 1% PFA and stained with 50 μg/mL filipin. Images were acquired using an ImageXpressMICRO imaging system with a 10× objective. […] (A) Cholesterol accumulation, as measured by the LSO filipin assay, at different concentrations of U18666A. MβCD (B) and HPβCD (C) LSO filipin dose-response curves at three different U18666A concentrations. […] Data represent averages±SEM of two independent experiments (n=12 for control and n=6 for treated, where n is total number of wells per condition used for quantification)."}, "[3]": {"tested_on": "NPC (GM03123) Fbs", "test": "rhASM enzyme replacement, LSO filipin quantification in NPC fibroblasts", "type": "cell-based, human", "protocol": "FIGS. 27 A-C. Graph showing the effect of SMase restoration on human NPC1 cells (exogenous acid SMase decreases cholesterol accumulation in LSOs in human NPC fibroblasts). Parallel sets of human WT (GM05659) and NPC (GM03123) Fbs were incubated in medium alone or, in the case of the NPC fibroblasts, medium containing 3 μg/mL recombinant human acid SMase (rhASM). Two days later, the cells were washed thoroughly with PBS and either lysed and assayed for acid SMase activity (A), or fixed and stained with filipin for imaging and quantification (B). […] Scale bar, 15 μm. The quantified data in the bar graph represent LSO ratios normalized to the WT Fb values (average of 60-66 images from three independent experiments±SEM). C) Another human NPC Fbs (GM18453) was incubated with 3 μg/mL rhASM for 24 h, unlike 48 h in NPC1 (GM03123). Quantified data shown in bar chart are the normalized LSO ratios (normalized to untreated NPC Fbs) in the presence and absence of recombinant enzyme. Data represents an average from two independent experiments and 30-36 images±SEM, p<0.0001.\n(§1) FIG. 29 A,B. Decreased LSO cholesterol accumulation and increased acid SMase activity are achieved in NPC1 human fibroblasts by increasing amounts of rhASM. WT (GM5659) and NPC (GM03123) Fbs were incubated with 0, 0.2 and 1.8 μg/mL rhASM for 24 hours. To remove surface-bound label, the cells were further incubated for 15 minutes with growth medium without the enzyme. The cells were washed thoroughly with PBS and either lysed and assayed for acid SMase activity (A) or fixed and stained with filipin for imaging and quantification (B). Each data point in plot (A) is representative of three wells in an experiment, p<0.05. Plot (B) represents LSO ratios normalized to the untreated NPC Fb […] values (average of 16-20 images from two independent experiments±SEM), p<0.005.\n(§2) Normal (GM05659) and NPC1 human fibroblasts (GM03123) were incubated in a medium containing 3 μg/mL recombinant human acid SMase (rhASM). Two days later, the cells were washed thoroughly with PBS, and either lysed and assayed for acid SMase activity or fixed and stained with filipin for imaging and quantification. NPC1 human fibroblasts GM18453 were treated with 3 μg/mL rhASM for 24 h before fixing, staining with filipin, imaging and quantifying.\nCells were plated onto poly-d-lysine-coated 35-mm coverslip dishes in a medium containing 10% FBS. After 1-2 days of growth, the cell monolayers were washed three times with PBS and then fixed with 3% paraformaldehyde in PBS for 20 minutes at room temperature, followed by three more washes with PBS. To detect free cholesterol, filipin was added to the fixed cells (50 μg/mL in PBS) for 45 minutes at room temperature. Finally, the cells were washed three times with PBS, and images were acquired immediately after labeling.\nImages were analyzed using Metamorph (version 7.0 r4) image analysis software from Molecular Devices (MDS Analytical Technologies). All images were corrected for background before analysis. The average filipin and LSO ratio was calculated as described previously (Pipalia 2006). The LSO ratio was calculated based on low-thresholded region and high-thresholded intensities in the filipin image as described previously (Pipalia 2006)."}, "[4]": {"tested_on": "NPC (GM03123) Fbs", "test": "Acid SMase activity assay after rhASM, NPC fibroblasts", "type": "cell-based, human", "protocol": "as §1\nCell extracts were prepared by scraping cells into ice-cold 250 mM sucrose, followed by sonication on ice twice for 10 seconds each using a Branson Sonifier 450. […]\nas §2"}, "[5]": {"tested_on": "WT Fbs (GM05659)", "test": "rhASM, LSO filipin quantification in wild-type fibroblasts", "type": "cell-based, human", "settings": "all doses of rhASM tested (0, 0.2, 1.8 μg/mL)", "protocol": "as §1\nCells were plated onto poly-d-lysine-coated 35-mm coverslip dishes in a medium containing 10% FBS. […]\nImages were analyzed using Metamorph (version 7.0 r4) image analysis software from Molecular Devices (MDS Analytical Technologies). […] The average filipin and LSO ratio was calculated as described previously (Pipalia 2006). The LSO ratio was calculated based on low-thresholded region and high-thresholded intensities in the filipin image as described previously (Pipalia 2006)."}, "[6]": {"tested_on": "WT Fbs (GM05659)", "test": "Acid SMase activity assay after rhASM, wild-type fibroblasts", "type": "cell-based, human", "settings": "24 hours", "protocol": "as §1\nCell extracts were prepared by scraping cells into ice-cold 250 mM sucrose, followed by sonication on ice twice for 10 seconds each using a Branson Sonifier 450. To prepare the substrate, solvent from 0.1 μCi [cholinemethyl-^14C] […] The assay solution, which was added to 1.5-mL microcentrifuge tubes on ice, consisted of 50 μL assay buffer, 20 μL substrate and 20 μL of cell extract. After incubation for 60 minutes at 37° C., the reaction was terminated by adding 125 μL of chloroform:methanol (2:1, v/v). The assay tubes were vortexed for 1 minute and then centrifuged 5000×g for 5 minutes at 4° C. […]"}, "[7]": {"tested_on": "WT (GM05659) and NPC (GM03123) human fibroblasts", "test": "Sub-cellular localization and uptake of Alexa555-conjugated rhASM", "type": "cell-based", "settings": "data not shown", "protocol": "WT (GM5659) and NPC (GM03123) Fbs were incubated with or without 3 μg/mL Alexa555-conjugated rhASM for 24 hours. To remove surface-bound label, the cells were further incubated for 15 min with a growth medium without the enzyme. Finally, the cells were washed with PBS, fixed with 1.5% PFA, and stained with filipin for imaging and quantification. […] Color overlays for filipin (green) and rhASM-Alexa555 (red) are shown in panels (C, F and I). The images in the inset are the zoomed color overlays of the region marked in (C, F and I). Scale bar=10 μm.\nFor identifying the localization of rhASM in the cells, recombinant enzyme was conjugated with Alexa555 (Invitrogen) according to the manufacturer's protocol. Normal (GM05659) and NPC1 human fibroblasts (GM03123) were incubated in a medium containing 3 μg/mL Alexa555-rhASM for 24 h prior to fixing and staining with filipin. Images were acquired using standard UV and TRITC filters for filipin and Alexa555-labeled rhASM, and quantified.\nTo ascertain whether exogenously added rhASM was localized and processed in late endosomal organelles, WT (GM05659) and NPC (GM03123) human fibroblasts were incubated for 24 hours in the absence or presence of 3 μg/mL of Alexa555-labeled rhASM. […] The cells were then washed, fixed and stained with filipin for imaging and quantification. […]"}}, "data": [{"molecule": "CCN(CC)CCO[C@H]1CC[C@@]2(C)C(=CC[C@@H]3[C@@H]2CC[C@]2(C)C(=O)CC[C@@H]32)C1", "note": "[U18666A, 3-β-[(2-diethyl-amino)ethoxy]androst-5-en-17-one]", "values": [{"measurement": "free cholesterol per μg cell protein", "setting": "[1]", "result": "0.074 ± 0.006", "unit": "pmol/µg"}, {"measurement": "extent of cholesterol accumulation in LSOs", "setting": "[2]", "result": "dose dependent"}]}, {"molecule": "B1", "values": [{"measurement": "decrease in LSO filipin intensity", "setting": "[3]; 0.2 μg/mL rhASM, 24 hours", "result": "~20", "unit": "%"}, {"measurement": "reduction of LSO filipin intensity", "setting": "[3]; 1.8 μg/mL rhASM, 24 hours", "result": "~60", "unit": "%"}, {"measurement": "decrease in LSO filipin intensity", "setting": "[3]; 3 μg/mL rhASM (FIG. 27)", "result": "65-70%"}, {"measurement": "LSO filipin fluorescence", "setting": "[3]; 3 μg/mL rhASM, two days (FIG. 27B)", "result": "dramatically decreased LSO filipin fluorescence"}, {"measurement": "residual cholesterol accumulation", "setting": "[3]; excess acid SMase, NPC1 cells", "result": "25-30%"}, {"measurement": "acid SMase activity", "setting": "[4]; 0.2 μg/mL rhASM, 24 hours", "result": "increased acid SMase activity significantly"}, {"measurement": "defect in acid SMase activity", "setting": "[4]; 3 μg/mL rhASM, two days (FIG. 27A)", "result": "corrected"}, {"measurement": "LSO filipin staining", "setting": "[5]", "result": "remained low and constant"}, {"measurement": "acid SMase activity", "setting": "[6]; 0.2 μg/mL rhASM", "result": "increased slightly"}, {"measurement": "acid SMase activity", "setting": "[6]; 1.8 μg/mL rhASM", "result": "did not increase further"}]}, {"molecule": "B2", "values": [{"measurement": "effect of Alexa555 conjugation on enzyme activity", "setting": "[7]", "result": "did not affect its activity"}]}]}
